Test results: patent US20180186871A1 (SINGAPORE HEALTH SERVICES PTE, published 2018)
Like-named read-outs stand apart in the source and are kept apart here. Blank lines part the entries; values can stand above or below the binder they belong to.

Columns and labels:
[1] = target: T1, human IL-11 (human, UniProt P20809 22-199); assay: ELISA on coated recombinant human IL-11, scFv-Fc dilution series
T1 construct: In the ELISAs this is recombinant human IL-11 coated on the plate (expressed in CHO cells as Fc-tagged and tag-free versions); In the fibroblast assays it is the IL-11 produced by human fibroblasts after TGFβ1 stimulation; also called recombinant human IL-11 (GenScript Cat. No. Z03108-1); interleukin 11
T1 sequence (looked up): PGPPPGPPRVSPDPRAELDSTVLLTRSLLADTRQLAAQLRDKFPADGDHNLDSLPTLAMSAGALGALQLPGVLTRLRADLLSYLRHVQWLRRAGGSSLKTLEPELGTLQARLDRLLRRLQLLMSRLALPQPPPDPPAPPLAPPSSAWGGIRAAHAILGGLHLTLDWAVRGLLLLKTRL

[2] = target: T1, human IL-11; assay: cell-based or functional assay
[3] = target: T1, human IL-11; assay: ELISA binding signal
[4] = target: T2, FLAG-tagged human IL-11 expressed at the cell surface (human, UniProt P20809 22-199); assay: flow cytometry of hybridoma subclone supernatants on cells transfected with pB1-IL11-hum.FL (FLAG-tagged human IL-11 at the cell surface), anti-mouse IgG detection; sheet says 'flow cytometry (Attunes)', legend says iQue
T2 construct: whole, on cells; also called IL-11 expressing HEK cells; target cells expressing human IL-11 at their surface; not shown: how the protein is held at
T2 sequence (looked up): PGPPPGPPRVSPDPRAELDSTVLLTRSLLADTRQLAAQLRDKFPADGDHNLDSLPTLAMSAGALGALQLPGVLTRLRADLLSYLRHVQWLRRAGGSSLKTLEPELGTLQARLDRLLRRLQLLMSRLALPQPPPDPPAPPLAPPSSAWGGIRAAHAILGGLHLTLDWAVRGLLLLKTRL

[5] = target: T1, human IL-11; assay: indirect ELISA on plate-coated recombinant human IL-11 (1 µg/mL), detection with HRP anti-human IgG (Fc-specific), absorbance 450-570 nm
[6] = target: T1, human IL-11; assay: as above; remark: listed apart in the source
[7] = target: T1, human IL-11; assay: EC50 from the indirect ELISA titrations of FIGS. 28A-28F on plate-coated recombinant human IL-11 (five-parameter fit), ng/ml is the concentration unit of FIG. 28 and paragraph 502
[8] = target: T1, human IL-11; assay: EC50 by indirect ELISA on plate-coated recombinant human IL-11 (five-parameter fit); no titration curve of Yu33-B4 is drawn in FIGS. 28A-28F, ng/ml is the concentration unit of FIG. 28 and paragraph 502
[9] = target: T1, human IL-11; assay: indirect ELISA on plate-coated recombinant human IL-11 (1 µg/mL), detection with HRP anti-human IgG (Fc-specific), absorbance 450-570 nm; remark: listed apart in the source

- EC50 [1]: 0.028 µg/mL
- MMP2 production (ng/ml), TGFB1-stimulated human atrial fibroblasts, Experiment 1 (NEG 42.7, POS 70.2) [2]: 42.3 ng/mL
- MMP2 production (ng/ml), TGFB1-stimulated human atrial fibroblasts, Experiment 2 (NEG 36.2, POS 62.3) [2]: 38 ng/mL
- hIL11 - average signal [3]: 0.153
B4: YU100-G08 (scFv)
scFv: QVQLVQSGGGVVQPGRSLRLSCAASGFTFSSYGMHWVRQAPGKGLEWVAVISYDGSNKYYADSVKGRFTISRDNSKNTLYLQMNSLRAEDTAVYYCAKIGATDPLDYWGQGTLVTVSSGSASAPKLEEGEFSEARVQSALTQPRSVSGSPGQSVTLSCTGTSSDVGGYNYVSWYQHYPGKAPKLMIFDVNERSSGVPDRFSGSKSGNTASLTISGLQAEDEADYYCCSYAGRYTWMFGGGTKVTVL
notes: light chain-shuffled human anti-IL-11 clone

- binding result [5]: binds
B6: Yu33-H3 (IgG) (antibody, V domains shown)
VH: EVQLVESGGGFVKPGGSLSISCAASGFTFSGAYMNWVRQAPGKGLEWVAVISYDGSNKYYADSVKGRFTISRDNSKNTLYLQMNSLRAEDTAVYYCARDLYAFDIWGQGTMVTVSS
VL: LPVLTQPHSVSESPGRTVTISCTRNTGNIASNRVQWYQQRPASAPTVVIYDNHQRPSGVPDRFSGSIDTSPNSAYLTISGLKTEDEADYYCQSYDYSSVIFGGGTQLTVL
notes: also called YU33-B3/H3; #2

- EC50 [1]: 0.053 µg/mL
- MMP2 production (ng/ml), TGFB1-stimulated human atrial fibroblasts, Experiment 1 (NEG 42.7, POS 70.2) [2]: 48.3 ng/mL
- MMP2 production (ng/ml), TGFB1-stimulated human atrial fibroblasts, Experiment 2 (NEG 36.2, POS 62.3) [2]: 42.2 ng/mL
- hIL11 - average signal [3]: 0.43
B7: YU100-H01 (scFv)
scFv: QVQLVQSGGGVVQPGRSLRLSCAASGFTFSSYAMHWVRQAPGKGLEWVAVISYDGSNKYYADSVKGRFTISRDNSKNTLYLQMNSLRAEDTAVYYCARIMGYDYGDYDVVDYWGQGTLVTVSSGSASAPKLEEGEFSEARVQSALTQPRSVSGSPGQSVTISCTGTSSDVGAYNYVSWYQQHPGKAPKLMIYDVSERPSGVPDRFSGSKSGNTASLTISGLQAEDEADYYCCSYAGSYTWVFGGGTKLTVL
notes: as for B4

- EC50 (read off the curve) [6]: ~0.006 µg/mL
- EC50 [7]: 0.00629 µg/mL
B8: Yu45-G8 (Fc fusion, not shown: a dimerising Fc or GST; small tags and cut ends)
VH: EVQLVESGGGVVQPGRSLRLSCAASGFTFSSYGMHWVRQAPGKGLEWVAVISYDGSNKYYADSVKGRFTISRDNSKNTLYLQMNSLRAEDTAVYYCAKFARGVYLFDYWGQGTLVTVSS
VL: QSALTQPASVSGSPGQSITISCTGTSSDVGGYDYVSWYQQHPGTAPKLMISDVHNRPLGVSNRFSGSKSGNTASLTISGLQAEDEADYYCSSYTSSITWVFGGGTKLTVL
notes: also called YU45-G8/H6; #19

- binding result [9]: no binding (tested: 800 ng/ml)
B11: Yu33-A2 (IgG) (antibody, V domains shown)
VH: QLQQSGPGLVKPSQTLSLTCAISGDSVSSNSAAWNWIRQSPSRGLEWLGRTYYRSKWYNDYAVSVKSRITINPDTSKNQFTLQLNSVTPDDTAVYYCARGTRGYFDYWGQGTLVTVSS
VL: DVVMTQSPSSLSASVGDRVTITCRASQDVGRYVAWYQQKVGKVPRLLIYAASALQSGVPSRFSGTASETSFTLTISSLQPEDVASYYCQQYRSAPLAFGGGTGVEIK
notes: also called #1

The next lines start with the binder.

B1: YU100-F11 (scFv)
scFv: QVQLVESGGGVVQPGRSLRLSCAASGFTFSSYGMHWVRQAPGKGLEWVAVISYDGSNKYYADSVKGRFTISRDNSKNTLYLQMNSLRAEDTAVYYCAKIGATDPLDYWGQGTLVTVSSGSASAPKLEEGEFSEARVQSALTQPASVSGSPGQSITISCTGSSSDVAGYNYVSWYQQHPGKAPKLMIYDVTKRPSGVPDRFSGSKSGNTASLTISGLQAEDEADYYCCSYAGSYTWVFGGGTQLTVL
notes: as for B4
- EC50 [1]: 0.027 µg/mL
- MMP2 production (ng/ml), TGFB1-stimulated human atrial fibroblasts, Experiment 1 (NEG 42.7, POS 70.2) [2]: 44.5 ng/mL
- MMP2 production (ng/ml), TGFB1-stimulated human atrial fibroblasts, Experiment 2 (NEG 36.2, POS 62.3) [2]: 37.6 ng/mL
- hIL11 - average signal [3]: 0.319

B2: BSN-7D4 (antibody, V domains shown)
VH: EVQLQQSGPELVKPGASVKISCKASGYTFTDYNMDWVKQSQGKRLEWIGDINPNYGGTIYNQKFKGKATLTVDKSSSTAYMELRSLTSEDTTVYYCTRGELGHWYFDVWGTGTTVTVSS
VL: DIVLTQSPPSLTVSLGQRATISCRASKSVSASGYSYMHWYQQKPGQPPKLLIYLTSNLESGVPARFSGSGSGTDFTLNIHPVEEEDAATYYCQHSWDLPPTFGGGTKLEIK
- % positive (anti-FLAG positive control = 100%) [4]: 176%

B3: BSN-8H11 (antibody, V domains shown)
VH: EVQLQQSGPELVKPGASVKIPCKASGYTFTDYNIDWVKQSHGKSLEWIGDINPNYGGTLYNQKFKGKATLTVDKSSSTAYMELRSLTSEDTAVYYCARGELGHWYFDVWGTGTTVTVSS
VL: DIVLTQSPASLAVSLGQRATISCRASKSVSTSDYSYMHWYQQKPGHPPKLLIYLASNLESGVPARFSGSGSGTDFTLNIHPVEEEDAATYFCQHSRDLPPTFGGGTKLEIK
- % positive (anti-FLAG positive control = 100%) [4]: 190%

B5: BSN-5B8 (antibody, V domains shown)
VH: QVQLQQSGAELARPGTSVKLSCKASGYTFTSYGISWVKQRTGQGLEWIGEIYPRSSNTYYNEKFKGKATLTADKSSSTAYMELRSLTSEDSADYFCARANWVGYFDVWGTGTTVTVSS
VL: DIVMTQSHKFMSTSVGDRVTITCKASQDVGTAVAWYQQKPGQSPKLLIYWASTRLTGVPDRFTGSGSGTYFTLTINNVQSEDLADYFCQQYSSYRTFGGGTKLEIK
notes: mouse monoclonal anti-human IL-11 antibody from a hybridoma; also called A9
- % positive (anti-FLAG positive control = 100%) [4]: 188%

B9: YU33-B4/YU45-G2/A3 (Fc fusion)
VH: EVQLVESGGGVVQPGRSLRLSCAASGFTFSSYGMHWVRQAPGKGLEWVAVISYDGSNKYYADSVKGRFTISRDNSKNTLYLQMNSLRAEDTAVYYCAKIGATDPLDYWGQGTLVTVSS
VL: QSALTQPASVSGSPGQSITISCTGTSSDVGGYNYVSWYQQHPGKAPKLMIYDVSNRPSGVSNRFSGSKSGNTASLTIFGLQAEDEADYYCSSYTSSSSWVFGGGTKLTVL
notes: tested as scFv-Fc (human IgG1)
- EC50 [8]: 0.198 µg/mL
- EC50 [7]: 0.0142 µg/mL

B10: YU45-F2 (Fc fusion)
VH: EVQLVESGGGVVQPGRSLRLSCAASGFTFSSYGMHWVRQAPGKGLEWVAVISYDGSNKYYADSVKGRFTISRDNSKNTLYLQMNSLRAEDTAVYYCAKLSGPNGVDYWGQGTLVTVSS
VL: QPVLTQPRSVSGSPGQSVTISCTGTSSDVGGYNYVSWYQQHPGKAPKVMIYDVSKRPSGVPDRFSGSKSGNTASLTISGLQAEDEADYYCCSYAGSYTWVFGGGTKLTVL
notes: tested as scFv-Fc (human IgG1); also called #24
- EC50 (read off the curve) [6]: ~0.004 µg/mL
- EC50 [7]: 0.00424 µg/mL
